Experimental findings from patent publication US20120058906A1 (published 2012) are described below.

Test [1] deals with T1, rHuman CD44/Fc Chimera, CF (R&D Systems Cat#3660-CD) (human, UniProt P16070 21-220).
T1 construct: Bought reagent; Fc part of the bought chimera not given
The experiment in a line: ECL (MSD multi-spot), antigen spotted on plate; Fab 1410 nM; blank spot 709.

For test [2], the target named is T2, rHuman HGF R/c-MET/Fc Chimera, CF (R&D Systems Cat#358-MT/CF) (human, UniProt P08581 25-932).
T2 construct: Bought reagent; also called HGF R/Fc; hepatocyte growth factor receptor; Fc part of the bought chimera not given
The test is described as above.

Test [3] deals with T3, rHuman ErbB2/Fc Chimera, CF (R&D Systems Cat#1129-ER) (human, UniProt P04626 23-652).
T3 construct: Bought reagent; also called HER2/neu; human epidermal growth factor 2 receptor; Fc part of the bought chimera not given
Described as above.

Test [4] deals with T4, rHuman Notch-1/Fc Chimera, CF (R&D Systems Cat#3647-TK) (human, UniProt P46531 19-526).
T4 construct: Bought reagent; Fc part of the bought chimera not given
The test is described as above.

Test [5] addresses T5, rHuman P-Cadherin/Fc Chimera, CF (R&D Systems Cat#861-PC) (human, UniProt P22223 108-654).
T5 construct: Bought reagent; also called CDH3; Fc part of the bought chimera not given
The test is described as above.

Test [6] addresses T6, rHuman EGF R/Fc Chimera, CF (R&D Systems Cat#344-ER) (human, UniProt P00533 25-645).
T6 construct: Bought reagent; also called epidermal growth factor receptor; Fc part of the bought chimera not given
The test is described as above.

Test [7] concerns the target T7, Recombinant Human DLL4 (R&D Systems Cat#1506-D4/CF) (human, UniProt Q9NR61 27-524).
T7 construct: Bought reagent; also called delta-like protein 4
The test is described as above.

For test [8], the target named is T8, rHuman Erythropoietin R/Fc Chimera, CF (R&D Systems Cat#963-ER) (human, UniProt P19235 25-250).
T8 construct: Bought reagent; also called EPO R/Fc; Epo R; Fc part of the bought chimera not given
T8 sequence: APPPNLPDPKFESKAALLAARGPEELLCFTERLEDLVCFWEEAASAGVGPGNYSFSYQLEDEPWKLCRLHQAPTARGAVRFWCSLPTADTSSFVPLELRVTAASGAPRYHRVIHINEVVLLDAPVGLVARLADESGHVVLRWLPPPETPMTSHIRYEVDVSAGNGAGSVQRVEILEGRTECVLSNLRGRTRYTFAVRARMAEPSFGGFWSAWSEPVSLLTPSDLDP
The description is as above.

In test [9] the target is T9, rHuman EGF R/Fc Chimera, CF (R&D Systems Cat#344-ER) (human, UniProt P00533 25-645).
T9 construct: also called epidermal growth factor receptor; Fc part of the bought chimera not given
Put plainly: MSD ECL multi-spot plate; Fab 130 nM; blank spot 1153.

Test [10] has as its target T10, rHuman HGF R/c-MET/Fc Chimera, CF (R&D Systems Cat#358-MT/CF) (human, UniProt P08581 25-932).
T10 construct: also called HGF R/Fc; hepatocyte growth factor receptor; Fc part of the bought chimera not given
The test is described as above.

The target in test [11] is T11, rHuman IGF-1 sR, (IGF-1 sR), CF (R&D Systems Cat#391-GR) (human, UniProt P08069 31-932).
T11 construct: also called insulin-like growth factor-1 soluble receptor; IGF-R1
Described as above.

Test [12] addresses T12, rHuman Notch-1/Fc Chimera, CF (R&D Systems Cat#3647-TK) (human, UniProt P46531 19-526).
T12 construct: Fc part of the bought chimera not given
The test is described as above.

For test [13], the target named is T13, rHuman CD44/Fc Chimera, CF (R&D Systems Cat#3660-CD) (human, UniProt P16070 21-220).
T13 construct: Fc part of the bought chimera not given
The test is described as above.

The target of test [14] is T14, rHuman ErbB2/Fc Chimera, CF (R&D Systems Cat#1129-ER) (human, UniProt P04626 23-652).
T14 construct: also called HER2/neu; human epidermal growth factor 2 receptor; Fc part of the bought chimera not given
Described as above.

For test [15], the target named is T15, Recombinant Human DLL4 (R&D Systems Cat#1506-D4/CF) (human, UniProt Q9NR61 27-524).
T15 construct: also called delta-like protein 4
Described as above.

The target of test [16] is T16, rHuman Erythropoietin R/Fc Chimera, CF (R&D Systems Cat#963-ER) (human, UniProt P19235 25-250).
T16 construct: also called EPO R/Fc; Epo R; Fc part of the bought chimera not given
T16 sequence: T8 sequence
The description is as above.

Test [17] deals with T17, rHuman EGF R/Fc Chimera, CF (R&D Systems Cat#344-ER) (human, UniProt P00533 25-645).
T17 construct: Bought Fc chimera; also called ErbB-1; not shown: Fc of the bought chimera
Put plainly: ECL (MSD multi-spot), antigen on plate, Fab 10 nM.

The target of test [18] is T18, rHuman CD44/Fc Chimera, CF (R&D Systems Cat#3660-CD) (human, UniProt P16070 21-220).
T18 construct: Bought Fc chimera; not shown: Fc of the bought chimera
The experiment in a line: ECL (MSD multi-spot), antigen on plate, Fab 10 nM.

For test [19], the target named is T19, rHuman IGF-1 sR (insulin-like growth factor-1 soluble receptor), CF (R&D Systems Cat#391-GR) (human, UniProt P08069 31-932).
T19 construct: Bought soluble receptor; also called IGF-R1
The experiment in a line: ECL (MSD multi-spot), antigen on plate, Fab 10 nM.
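Note: blank spot per well as comparator with Hit at signal to blank ratio of 4 or more.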

B1: Fab VH1-46_IGHD3-10*01_IGHJ4*01 & B3_IGKJ1*01 (Fab, V domains shown)
VH: QVQLVQSGAEVKKPGASVKVSCKASGYTFTSYYMHWVRQAPGQGLEWMGIINPSGGSTSYAQKFQGRVTMTRDTSTSTVYMELSSLRSEDTAVYYCAREYYYGSGSYYNDYFDYWGQGTLVTVSS
VL: not shown
notes: also called IGHV1-46*01
In the case of B1, the ECL signal was 885 in test [1]; 903 in test [2]; 932 in test [3]; 1030 in test [4]; 1060 in test [5]; 1070 in [6]. Also, the ECL signal in test [7] worked out at 1260; in [8] it was 4310.

B2: Fab VH1-8_IGHD2-2*01_IGHJ6*01 & L12_IGKJ1*01 (Fab, V domains shown)
VH: QVQLVQSGAEVKKPGASVKVSCKASGYTFTSYDINWVRQATGQGLEWMGWMNPNSGNTGYAQKFQGRVTMTRNTSISTAYMELSSLRSEDTAVYYCARGGYCSSTSCYADYYYYYGMDVWGQGTTVTVSS
VL: not shown
As to B2, the ECL signal in [9] came to 1750 ECL signal; in [10], 1880 ECL signal; in [11], 1970 ECL signal; in test [12] it was 1760 ECL signal; in test [13], 1750 ECL signal; in [14], 1530 ECL signal. Moreover, the ECL signal came out at 7740 ECL signal in test [15] and 2150 ECL signal in test [16].

B3: Fab VH1-46_IGHD6-6*01_IGHJ1*01_S102A_S103P_S104F & L6_IGKJ1*01_S31K (Fab, V domains shown)
VH: QVQLVQSGAEVKKPGASVKVSCKASGYTFTSYYMHWVRQAPGQGLEWMGIINPSGGSTSYAQKFQGRVTMTRDTSTSTVYMELSSLRSEDTAVYYCAREEYAPFSAEYFQHWGQGTLVTVSS
VL: EIVLTQSPATLSLSPGERATLSCRASQSVSKYLAWYQQKPGQAPRLLIYDASNRATGIPARFSGSGSGTDFTLTISSLEPEDFAVYYCQQRSNWPPWTFGQGTKVEIKR
notes: Fab
With B3, the ECL signal in [17] turned out to be 297 ECL signal; in test [18], 352 ECL signal; in test [19] it was 214 ECL signal.
